Substitutions are numbered along the chain they refer to.

In general, Ki refers to the dissociation constant of the complex between target and ligand, obtained from inhibition or displacement. Broadly, the IC50 is the concentration that inhibits the measured activity by half.

One test has as its target T1, EGFR:Fc (human, UniProt P00533 25-645).
T1 construct: also called soluble form of the EGFR fused to human IgG1 Fc (R&D Systems); Soluble EGFR; not shown: human IgG1 Fc
The test can be described thus: Western blot, native conditions, 100 ng soluble receptor. An excerpt: A soluble form of the EGFR fused to human IgG₁ Fc (R&D Systems) was used as a negative control.
A general note: A western blot detects proteins with antibodies after separation by electrophoresis.

Test [1] deals with T2, CSF-1R20-512-Fc (R&D Systems cat. 329-MR) (human, UniProt P07333 20-512).
T2 construct: Bought; also called CSF-1R1-512:Fc; soluble human CSF-1R; not shown: Fc region of a human IgG1
Briefly: ELISA: coated human CSF1 1-444 or PBS; Fc-D1-D5 human CSF-1R 0.125 µg/mL; anti-human IgG-Fc-HRP.

The target in test [2] is T3, human CSF-1R, full length, on cells (human, UniProt P07333 20-972).
T3 construct: also called cell-surface CSF-1R; B4-800-5 cells
The test can be described thus: displacement of 1.5 nM ^125I-H27K15 (competitor) on EL4-CSF-1R cells, Cheng-Prusoff.

The target of test [3] is T4, VEGFR1-Fc-6×his (R&D Systems cat. 321-FL-050) (human, UniProt P17948 27-758, limits assumed).
T4 construct: extracellular domain; Bought; also called soluble VEGFR-1
Briefly: ELISA, 300 ng coated receptor per well. As to the method: (§1) 13382) was also incubated with wells coated with receptor-human Fc fusion proteins Flt-3-Fc-, PDGFRβ-Fc, VEGFR2-Fc, VEGFR1-Fc, while PDGFRα- and SCFR-coated wells were incubated with respectively anti-PDGF-Rα (mouse IgG1, R&Dsystems cat. MAB322) and anti-SCF-R goat IgG (R&DSystems cat. AF332). […] Following revelation with tetramethylbenzidine (Sigma, cat. T8665) (0.1 mg/ml in 0.05 M sodium acetate, 0.05 M citric acid, H₂O₂ 1/7000), absorbance was measured at 450 nm and corrected by subtraction of absorbance at 540 nm using a spectrophotometer (Berthold, Tristar LB941).
For orientation: In an ELISA, binding on a coated surface is turned into a signal by an enzyme label.

Test [4] concerns the target T5, vascular endothelial growth factor receptor (VEGFR)2-Fc-6×his (R&D Systems cat. 357-KD/CF) (human, UniProt P35968 20-764, limits assumed).
T5 construct: extracellular domain; Bought; also called soluble VEGFR-2
Briefly: ELISA, 300 ng coated receptor per well. As to the method:
as §1

Test [5] addresses T6, PDGFRα ECD (R&D Systems cat. 322-PR/CF) (UniProt P16234 24-528, limits assumed).
T6 construct: extracellular domain; Bought; also called soluble PDGFRα
The test can be described thus: ELISA, 300 ng coated receptor per well. As to the method:
as §1

Test [6] has as its target T7, human SCFR ECD (R&D Systems cat. 332-SR/CF) (human, UniProt P10721 26-524).
T7 construct: extracellular domain; Bought; also called SCFR (c-kit)
The test can be described thus: ELISA, 300 ng coated receptor per well. As to the method: as §1

The target of test [7] is T8, PDGFRβ-Fc-6×his (R&D Systems cat. 385-PR/CF) (human, UniProt P09619 33-532, limits assumed).
T8 construct: extracellular domain; Bought; also called soluble PDGFRβ
Briefly: ELISA, 300 ng coated receptor per well. As to the method:
as §1

The target in test [8] is T9, Flt-3-Fc-6×his (R&D Systems cat. 368-ST/CF) (human, UniProt P36888 27-543, limits assumed).
T9 construct: extracellular domain; Bought; also called soluble Flt-3
The test can be described thus: ELISA, 300 ng coated receptor per well. As to the method:
as §1

For test [9], the target named is T3, human CSF-1R, full length, on cells. The test can be described thus: displacement of 1.5 nM ^125I-H27K15 (competitor) on EL4-CSF-1R cells.
In test [10] the target is T10, construct pTG18000 (human and murine D1 subdomains combined, Histidine tag) (Homo sapiens (Human), UniProt P07333 21-298).
T10 chain: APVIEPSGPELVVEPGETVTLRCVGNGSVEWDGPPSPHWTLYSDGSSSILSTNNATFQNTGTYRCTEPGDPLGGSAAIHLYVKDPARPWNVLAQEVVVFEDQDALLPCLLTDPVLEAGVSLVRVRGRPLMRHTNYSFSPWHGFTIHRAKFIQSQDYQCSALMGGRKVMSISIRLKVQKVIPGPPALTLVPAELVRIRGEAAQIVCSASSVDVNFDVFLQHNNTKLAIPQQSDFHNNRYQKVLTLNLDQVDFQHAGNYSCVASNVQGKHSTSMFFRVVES
The test can be described thus: ELISA: His-tagged construct captured from CHO supernatant on anti-His tag coated wells; biotinylated antibody; streptavidin-HRP. As to the method:
(§2) In order to map the mAb binding sites on CSF-1R, truncated mutants of human CSF-1R and chimeras between human and murine D1-D3 CSF-1R fused to Histidine tags were constructed (see FIGS. 19 and 20 for details). These constructs were expressed as secreted proteins using CHO cells. Expression of constructs was checked by immunoblot analysis using an anti-His tag antibody for detection. All constructs were captured on ELISA plate by incubating CHO culture supernatant into wells coated with an Anti-His tag antibody. Antibodies were biotinylated using Biotin-NHS (Sigma ref B3295-10 MG). Biotinylated antibodies were added to each well and binding was detected with streptavidin-HRP.

In the next test the target is T11, pTG18036.
T11 construct: truncated mutant secreted by CHO cells; also called human D1 and D2 of CSF-1R, Histidine tag
T11 single secreted chain: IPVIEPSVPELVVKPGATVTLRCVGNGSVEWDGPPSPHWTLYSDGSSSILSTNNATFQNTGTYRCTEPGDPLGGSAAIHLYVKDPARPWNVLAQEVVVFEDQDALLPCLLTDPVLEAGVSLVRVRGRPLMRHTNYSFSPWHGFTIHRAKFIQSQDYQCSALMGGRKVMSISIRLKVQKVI
The description is as above. As to the method: as §2

For the next test, the target named is T12, pTG17983.
T12 construct: secreted by CHO cells; also called human D1-D2-D3 of CSF-1R, Histidine tag
T12 single secreted chain: T10 chain with A1I, G8V, E14K, E17A
The description is as above. As to the method:
as §2

T5 sequence (P35968 20-764 limits assumed): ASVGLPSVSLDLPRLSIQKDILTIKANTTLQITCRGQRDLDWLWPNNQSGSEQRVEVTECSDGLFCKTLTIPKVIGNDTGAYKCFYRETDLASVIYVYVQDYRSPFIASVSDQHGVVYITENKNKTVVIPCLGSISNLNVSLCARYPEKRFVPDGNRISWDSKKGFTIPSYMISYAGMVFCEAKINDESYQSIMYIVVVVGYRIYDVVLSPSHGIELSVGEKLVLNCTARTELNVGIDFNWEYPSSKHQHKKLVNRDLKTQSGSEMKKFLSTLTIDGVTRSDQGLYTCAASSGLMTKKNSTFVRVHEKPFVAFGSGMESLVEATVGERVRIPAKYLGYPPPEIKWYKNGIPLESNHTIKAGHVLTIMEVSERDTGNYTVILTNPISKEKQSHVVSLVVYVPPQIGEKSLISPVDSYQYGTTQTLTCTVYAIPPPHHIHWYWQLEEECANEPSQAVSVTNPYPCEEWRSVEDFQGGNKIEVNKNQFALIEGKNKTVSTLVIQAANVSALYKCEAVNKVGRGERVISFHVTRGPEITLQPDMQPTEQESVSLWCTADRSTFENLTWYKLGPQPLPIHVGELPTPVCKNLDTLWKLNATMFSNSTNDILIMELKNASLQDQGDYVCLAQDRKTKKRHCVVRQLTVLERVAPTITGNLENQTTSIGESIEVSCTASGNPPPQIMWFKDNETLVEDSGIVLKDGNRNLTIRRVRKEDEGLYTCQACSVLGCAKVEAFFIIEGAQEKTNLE
T8 sequence (P09619 33-532 limits assumed): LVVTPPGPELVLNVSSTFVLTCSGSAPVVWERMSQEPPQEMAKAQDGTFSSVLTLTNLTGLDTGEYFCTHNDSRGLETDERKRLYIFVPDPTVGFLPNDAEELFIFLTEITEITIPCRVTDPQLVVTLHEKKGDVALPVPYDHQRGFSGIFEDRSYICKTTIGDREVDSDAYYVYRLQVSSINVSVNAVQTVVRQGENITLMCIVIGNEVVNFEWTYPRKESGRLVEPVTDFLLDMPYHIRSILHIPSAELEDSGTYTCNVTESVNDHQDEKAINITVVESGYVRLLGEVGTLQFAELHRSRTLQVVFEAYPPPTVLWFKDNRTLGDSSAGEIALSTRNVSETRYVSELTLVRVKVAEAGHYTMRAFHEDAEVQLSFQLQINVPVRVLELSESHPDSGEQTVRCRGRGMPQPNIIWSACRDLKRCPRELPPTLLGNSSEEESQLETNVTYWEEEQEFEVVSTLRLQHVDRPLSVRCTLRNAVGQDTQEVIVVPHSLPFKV
T4 sequence (P17948 27-758 limits assumed): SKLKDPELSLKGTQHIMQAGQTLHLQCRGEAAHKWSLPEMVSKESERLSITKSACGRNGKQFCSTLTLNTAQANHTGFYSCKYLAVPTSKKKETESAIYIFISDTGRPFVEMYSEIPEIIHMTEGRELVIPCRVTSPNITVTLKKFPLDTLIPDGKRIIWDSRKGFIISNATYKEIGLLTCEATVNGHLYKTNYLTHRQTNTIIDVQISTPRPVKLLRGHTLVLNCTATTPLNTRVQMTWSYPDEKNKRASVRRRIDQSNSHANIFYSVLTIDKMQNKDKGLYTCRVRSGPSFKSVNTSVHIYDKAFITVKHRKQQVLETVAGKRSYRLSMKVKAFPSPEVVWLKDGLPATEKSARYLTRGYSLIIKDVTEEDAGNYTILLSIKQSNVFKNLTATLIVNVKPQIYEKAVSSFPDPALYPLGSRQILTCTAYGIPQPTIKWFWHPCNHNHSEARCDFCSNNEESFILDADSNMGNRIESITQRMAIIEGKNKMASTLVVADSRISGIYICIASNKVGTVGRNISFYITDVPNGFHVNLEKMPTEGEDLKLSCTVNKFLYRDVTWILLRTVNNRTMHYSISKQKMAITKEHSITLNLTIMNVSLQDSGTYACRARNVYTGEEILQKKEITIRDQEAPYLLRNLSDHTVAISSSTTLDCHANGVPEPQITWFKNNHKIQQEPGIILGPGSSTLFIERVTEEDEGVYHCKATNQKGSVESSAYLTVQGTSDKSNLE
T6 sequence (P16234 24-528 limits assumed): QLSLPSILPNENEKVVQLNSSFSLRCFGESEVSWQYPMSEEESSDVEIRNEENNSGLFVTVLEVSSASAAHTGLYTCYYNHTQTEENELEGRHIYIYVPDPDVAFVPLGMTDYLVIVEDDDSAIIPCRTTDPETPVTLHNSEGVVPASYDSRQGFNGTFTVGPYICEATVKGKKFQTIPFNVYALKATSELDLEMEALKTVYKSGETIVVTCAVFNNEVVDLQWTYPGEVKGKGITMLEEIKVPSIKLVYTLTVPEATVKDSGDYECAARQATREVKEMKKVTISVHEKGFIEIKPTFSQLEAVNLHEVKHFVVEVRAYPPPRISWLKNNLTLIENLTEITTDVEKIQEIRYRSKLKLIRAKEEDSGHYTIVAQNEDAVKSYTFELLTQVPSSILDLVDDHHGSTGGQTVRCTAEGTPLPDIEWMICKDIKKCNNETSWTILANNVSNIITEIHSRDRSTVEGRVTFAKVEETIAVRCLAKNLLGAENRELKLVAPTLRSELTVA

B1: mAb CXIIG6 (antibody, mouse IgG2a, kappa)
heavy: EVKLEESGGGLVQPGGSMKLSCAASGFTFSDAWMDWVRQSPEMGLEWVAEIRSKANNHATFYAESVKGRFTISRDDSKSSVYLQMNSLRPEDTGIYYCTRVKVGFDNWGQGTTLTVSSAKTTAPSVYPLAPVCGDTTGSSVTLGCLVKGYFPEPVTLTWNSGSLSSGVHTFPAVLQSDLYTLSSSVTVTSSTWPSQSITCNVAHPASSTKVDKKIEPRGPTIKPCPPCKCPAPNLLGGPSVFIFPPKIKDVLMISLSPIVTCVVVDVSEDDPDVQISWFVNNVEVHTAQTQTHREDYNSTLRVVSALPIQHQDWMSGKEFKCKVNNKDLPAPIERTISKPKGSVRAPQVYVLPPPEEEMTKKQVTLTCMVTDFMPEDIYVEWTNNGKTELNYKNTEPVLDSDGSYFMYSKLRVEKKNWVERNSYSCSVVHEGLHNHHTTKSFSRTPGK
light: DIQMTQSPASLSVSVGETVTITCRASENIYSNLAWYQQKQGKSPQLLVHAATNLADGVPSRFSGSGSGTQYSLKINSLQSEDFGSYYCQHFWGTPRTFGGGTKLEIKRADAAPTVSIFPPSSEQLTSGGASVVCFLNNFYPKDINVKWKIDGSERQNGVLNSWTDQDSKDSTYSMSSTLTLTKDEYERHNSYTCEATHKTSTSPIVKSFNRNEC
notes: Mouse IgG2a; Used as hybridoma supernatant or as purified recombinant antibody; also called CXIIG6 hybridoma supernatant; CXIIG6 SN
As to B1, the binding result with EGFR:Fc is reported as “no binding”.

B2: human CSF1 1-444 (Geneart) (ligand)
chain: EEVSEYCSHMIGSGHLQSLQRLIDSQMETSCQITFEFVDQEQLKDPVCYLKKAFLLVQDIMEDTMRFRDNTPNAIAIVQLQELSLRLKSCFTKDYEEHDKACVRTFYETPLQLLEKVKNVFNETKNLLDKDWNIFSKNCNNSFAECSSQDVVTKPDCNCLYPKAIPSSDPASVSPHQPLAPSMAPVAGLTWEDSEGTEGSSLLPGEQPLHTVDPGSAKQAPPRSTCQSFEPPETPVVKDSTIGGSPQPRPSVGAFNPGMEDILDSAMGTNWVPEEASGEASEIPVPQGTELSPSRPGGGSMQTEPARPSNFLSASSPLPASAKGQQPADVTGTALPRVGPVRPTGQDWNHTPQKTDHPSALLRDPPEPGSPRISSLRPQGLSNPSTLSAQPQLSRSHSSGSVLPLGELEGRR
modifications: biotinylated with Biotin-NHS in the assay of
notes: also called biotinylated CSF-1
Regarding B2, the binding result in test [1] is recorded as “binds”.

B3: H19K12 (antibody, V domains shown)
VH: EVQLVESGGGLVQPGGSLKLSCAASGFTFSDAWMDWVRQSPEMGLEWVAEIRSKANNHATFYAESVKGRFTISRDDSKSSVYLQMNSLRAEDTGIYYCTRVKVGFDNWGQGTTLTVSS
VL: DIQMTQSPSSLSASVGDRVTITCRASENIYSNLAWYQQKDGKSPQLLVHAATNLADGVPSRFSGSGSGTQYSLTISSLQPEDFGSYYCQHFWGTPRTFGGGTKLEIKR
notes: Humanized human IgG1/kappa; also called hCXIIG6 variant H19K12
Turning to B3, the affinity in test [2], expressed as Ki, was 0.754 nM. The binding result in test [3], in [4], in test [5], in [6], in [7] and in test [8] was “no binding (tested: 500 ng/ml)” throughout. Also, the IC50 in [9] was found to be 1.28 nM.

B4: Chimeric CXIIG6 IgG1 (antibody)
heavy: not shown
light: DIQMTQSPASLSVSVGETVTITCRASENIYSNLAWYQQKQGKSPQLLVHAATNLADGVPSRFSGSGSGTQYSLKINSLQSEDFGSYYCQHFWGTPRTFGGGTKLEIKRTVAAPSVFIFPPSDEQLKSGTASVVCLLNNFYPREAKVQWKVDNALQSGNSQESVTEQDSKDSTYSLSSTLTLSKADYEKHKVYACEVTHQGLSSPVTKSFNRGEC
Molecule B4 returned a Ki in [2] of 0.874 nM. In test [9], this molecule displayed an IC50 of 1.48 nM. Besides, the binding result in [10] is “no binding”; in the test with pTG18036, “binds”; in the test with pTG17983 it was “binds”.

Source of the values: patent publication US20170002081A1 (TRANSGENE S A, published 2017).
